# Reference: article PMC7899689
# Assays:
# [1] = target: human recombinant HER2 protein (extracellular domain Thr23-Thr652 of human ERBB2 with His tag) (human) (UniProt P04626); test: SEC-MALS
# [2] = target: human recombinant HER2 protein (extracellular domain Thr23-Thr652 of human ERBB2 with His tag) (human) (UniProt P04626); test: SEC
substance,measurement,setting,value
trastuzumab stressed at 45°C for 10 days (45C10d) (antibody),percent of antibody unbound (mixed 1:1),[1],40%
same,percent of antibody unbound (mixed 1:1),[2],40%
